# Test results: IntAct's records for PubMed 35512704
# B1: Mothers against decapentaplegic homolog 4 (Homo sapiens), Q13485 (parent)
# chain: MDNMSITNTPTSNDACLSIVHSLMCHRQGGESETFAKRAIESLVKKLKEKKDELDSLITAITTNGAHPSKCVTIQRTLDGRLQVAGRKGFPHVIYARLWRWPDLHKNELKHVKYCQYAFDLKCDSVCVNPYHYERVVSPGIDLSGLTLQSNAPSSMMVKDEYVHDFEGQPSLSTEGHSIQTIQHPPSNRASTETYSTPALLAPSESNATSTANFPNIPVASTSQPASILGGSHSEGLLQIASGPQPGQQQNGFTGQPATYHHNSTTTWTGSRTAPYTPNLPHHQNGHLQHHPPMPPHPGHYWPVHNELAFQPPISNHPAPEYWCSIAYFEMDVQVGETFKVPSSCPIVTVDGYVDPSGGDRFCLGQLSNVHRTEAIERARLHIGKGVQLECKGEGDVWVRCLSDHAVFVQSYYLDREAGRAPGDAVHKIYPSAYIKVFDLRQCHRQMQQQAATAQAAAAAQAAAVAGNIPGPGSVGGIAPAISLSAAAGIGVDDLRRLCILRMSFVKGWGPDYPRQSIKETPCWIEIHLHRALQLLDEVLHTMPIADPQPLD
# partner: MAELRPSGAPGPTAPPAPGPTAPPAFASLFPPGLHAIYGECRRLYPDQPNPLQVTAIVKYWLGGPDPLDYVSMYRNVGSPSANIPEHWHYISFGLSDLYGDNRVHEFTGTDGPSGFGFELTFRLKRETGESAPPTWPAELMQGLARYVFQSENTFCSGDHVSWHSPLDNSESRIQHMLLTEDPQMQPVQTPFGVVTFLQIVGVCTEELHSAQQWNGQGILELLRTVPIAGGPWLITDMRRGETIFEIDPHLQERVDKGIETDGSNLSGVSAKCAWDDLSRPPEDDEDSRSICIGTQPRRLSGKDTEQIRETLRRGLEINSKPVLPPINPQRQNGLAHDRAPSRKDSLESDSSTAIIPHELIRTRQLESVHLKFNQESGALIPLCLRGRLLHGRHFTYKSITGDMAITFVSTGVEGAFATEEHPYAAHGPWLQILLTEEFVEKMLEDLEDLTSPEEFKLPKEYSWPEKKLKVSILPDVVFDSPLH
# B2: Mothers against decapentaplegic homolog 4 (Homo sapiens), Q13485 (parent)
# chain: B1 chain
# partner: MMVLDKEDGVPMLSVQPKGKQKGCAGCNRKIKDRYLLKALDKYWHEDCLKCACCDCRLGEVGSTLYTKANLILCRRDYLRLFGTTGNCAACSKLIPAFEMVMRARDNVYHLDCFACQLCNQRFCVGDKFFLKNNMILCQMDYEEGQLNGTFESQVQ
# B3: Mothers against decapentaplegic homolog 4 (Homo sapiens), Q13485 (parent)
# chain: B1 chain
# partner: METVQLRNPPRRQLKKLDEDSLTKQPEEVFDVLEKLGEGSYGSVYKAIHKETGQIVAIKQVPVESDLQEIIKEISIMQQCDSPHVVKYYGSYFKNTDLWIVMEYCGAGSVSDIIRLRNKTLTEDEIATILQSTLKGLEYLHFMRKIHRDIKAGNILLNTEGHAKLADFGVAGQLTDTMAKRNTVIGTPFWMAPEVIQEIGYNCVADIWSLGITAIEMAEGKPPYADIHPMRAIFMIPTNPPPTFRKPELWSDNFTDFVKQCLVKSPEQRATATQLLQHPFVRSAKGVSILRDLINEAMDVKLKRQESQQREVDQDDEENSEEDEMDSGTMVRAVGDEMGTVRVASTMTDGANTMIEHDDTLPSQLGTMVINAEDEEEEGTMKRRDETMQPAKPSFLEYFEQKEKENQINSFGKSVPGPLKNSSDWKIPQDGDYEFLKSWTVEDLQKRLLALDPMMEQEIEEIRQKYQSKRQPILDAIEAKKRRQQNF
# B4: Mothers against decapentaplegic homolog 4 (Homo sapiens), Q13485 (parent)
# chain: B1 chain
# partner: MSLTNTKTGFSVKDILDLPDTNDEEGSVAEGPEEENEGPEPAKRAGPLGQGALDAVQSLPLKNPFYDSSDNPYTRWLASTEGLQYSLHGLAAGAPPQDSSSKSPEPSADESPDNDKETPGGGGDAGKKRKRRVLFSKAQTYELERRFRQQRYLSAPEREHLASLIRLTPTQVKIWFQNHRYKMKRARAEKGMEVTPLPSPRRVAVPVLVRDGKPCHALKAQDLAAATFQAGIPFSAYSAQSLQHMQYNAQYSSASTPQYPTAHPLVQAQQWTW
# B5: Mothers against decapentaplegic homolog 4 (Homo sapiens), Q13485 (parent)
# chain: B1 chain
# partner: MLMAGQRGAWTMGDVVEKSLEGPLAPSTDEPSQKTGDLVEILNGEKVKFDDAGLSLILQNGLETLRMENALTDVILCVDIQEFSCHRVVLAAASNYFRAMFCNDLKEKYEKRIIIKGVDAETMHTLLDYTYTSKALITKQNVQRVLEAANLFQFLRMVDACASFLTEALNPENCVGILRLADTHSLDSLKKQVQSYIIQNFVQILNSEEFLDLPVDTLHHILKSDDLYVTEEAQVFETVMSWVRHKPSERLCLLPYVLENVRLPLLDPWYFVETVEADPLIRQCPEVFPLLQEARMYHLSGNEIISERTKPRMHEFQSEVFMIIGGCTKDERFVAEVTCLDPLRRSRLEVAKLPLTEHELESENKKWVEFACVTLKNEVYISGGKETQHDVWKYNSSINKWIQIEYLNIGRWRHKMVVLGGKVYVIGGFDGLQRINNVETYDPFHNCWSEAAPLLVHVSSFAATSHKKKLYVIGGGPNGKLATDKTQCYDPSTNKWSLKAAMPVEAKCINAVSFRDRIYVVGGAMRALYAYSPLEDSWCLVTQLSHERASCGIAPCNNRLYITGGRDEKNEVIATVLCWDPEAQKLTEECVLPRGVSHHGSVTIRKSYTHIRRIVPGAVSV
# B6: Mothers against decapentaplegic homolog 4 (Homo sapiens), Q13485 (parent)
# chain: B1 chain
# partner: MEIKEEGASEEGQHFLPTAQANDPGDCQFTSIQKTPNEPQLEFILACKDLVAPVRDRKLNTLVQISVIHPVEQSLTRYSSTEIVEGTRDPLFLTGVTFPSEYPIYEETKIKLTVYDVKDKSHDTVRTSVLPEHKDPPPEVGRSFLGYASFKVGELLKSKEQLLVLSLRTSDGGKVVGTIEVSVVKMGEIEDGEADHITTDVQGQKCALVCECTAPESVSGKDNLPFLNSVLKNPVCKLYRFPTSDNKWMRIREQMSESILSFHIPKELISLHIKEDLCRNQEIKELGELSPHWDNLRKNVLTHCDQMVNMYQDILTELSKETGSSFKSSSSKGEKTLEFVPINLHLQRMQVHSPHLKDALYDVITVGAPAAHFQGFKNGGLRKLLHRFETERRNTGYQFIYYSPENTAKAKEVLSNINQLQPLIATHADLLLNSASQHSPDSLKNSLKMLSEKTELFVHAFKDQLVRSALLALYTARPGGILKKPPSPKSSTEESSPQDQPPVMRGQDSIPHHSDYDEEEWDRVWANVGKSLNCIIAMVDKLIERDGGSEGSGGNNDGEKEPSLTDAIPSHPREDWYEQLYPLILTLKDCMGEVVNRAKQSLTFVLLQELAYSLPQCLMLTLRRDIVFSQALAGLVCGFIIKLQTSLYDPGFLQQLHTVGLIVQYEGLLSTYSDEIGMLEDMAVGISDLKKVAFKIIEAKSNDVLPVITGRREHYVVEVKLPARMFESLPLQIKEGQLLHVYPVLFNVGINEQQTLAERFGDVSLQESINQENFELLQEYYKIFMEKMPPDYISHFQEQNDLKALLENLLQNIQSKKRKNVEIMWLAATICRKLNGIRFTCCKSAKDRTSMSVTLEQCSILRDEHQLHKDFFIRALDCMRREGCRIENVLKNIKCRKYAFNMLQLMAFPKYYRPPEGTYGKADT
# B7: Mothers against decapentaplegic homolog 4 (Homo sapiens), Q13485 (parent)
# chain: B1 chain
# partner: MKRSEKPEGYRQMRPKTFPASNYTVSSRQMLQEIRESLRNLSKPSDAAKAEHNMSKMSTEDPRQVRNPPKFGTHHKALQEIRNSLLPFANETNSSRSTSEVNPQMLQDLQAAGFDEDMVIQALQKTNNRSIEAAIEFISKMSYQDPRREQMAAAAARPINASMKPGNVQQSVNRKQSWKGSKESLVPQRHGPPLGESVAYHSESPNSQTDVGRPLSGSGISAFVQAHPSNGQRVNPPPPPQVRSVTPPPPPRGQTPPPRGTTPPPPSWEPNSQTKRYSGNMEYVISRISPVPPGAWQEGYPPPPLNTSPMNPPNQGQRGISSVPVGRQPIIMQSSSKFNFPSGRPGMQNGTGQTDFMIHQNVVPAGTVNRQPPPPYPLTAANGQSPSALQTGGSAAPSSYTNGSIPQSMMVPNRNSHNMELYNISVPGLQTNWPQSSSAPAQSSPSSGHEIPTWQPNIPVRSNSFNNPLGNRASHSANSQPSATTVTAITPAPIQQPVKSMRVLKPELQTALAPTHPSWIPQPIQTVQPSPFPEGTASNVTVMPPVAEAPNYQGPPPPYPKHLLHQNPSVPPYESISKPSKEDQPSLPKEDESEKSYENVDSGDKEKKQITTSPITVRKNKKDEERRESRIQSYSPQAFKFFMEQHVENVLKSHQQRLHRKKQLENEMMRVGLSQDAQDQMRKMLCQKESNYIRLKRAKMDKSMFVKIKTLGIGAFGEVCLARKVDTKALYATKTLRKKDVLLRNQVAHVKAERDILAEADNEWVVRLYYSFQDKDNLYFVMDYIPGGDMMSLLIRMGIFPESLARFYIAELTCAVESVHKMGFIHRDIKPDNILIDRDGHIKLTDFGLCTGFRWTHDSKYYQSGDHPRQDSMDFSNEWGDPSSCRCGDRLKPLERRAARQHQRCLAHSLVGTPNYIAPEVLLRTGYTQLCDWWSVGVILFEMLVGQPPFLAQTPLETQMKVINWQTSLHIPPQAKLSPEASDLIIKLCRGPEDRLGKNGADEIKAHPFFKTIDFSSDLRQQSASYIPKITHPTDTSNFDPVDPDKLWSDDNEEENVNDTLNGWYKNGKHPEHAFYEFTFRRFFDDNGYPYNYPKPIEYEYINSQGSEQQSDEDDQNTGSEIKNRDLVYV
# Variants of: B1
# Settings: with sufu_human SUFU
row,effect of a mutation on the interaction,Variant
1,with no effect,R361C

# Variants of: B2
# Settings: with rbtn1_human LMO1, P25800
row,effect of a mutation on the interaction,Variant
1,with no effect,R361C

# Variants of: B2
# Settings: with rbtn1_human LMO1, P25800
# Remark: another data set of the same source
row,effect of a mutation on the interaction,Variant
1,with no effect,R361H

# Variants of: B2
# Settings: with rbtn1_human LMO1, P25800
# Remark: another data set of the same source
row,effect of a mutation on the interaction,Variant
1,with no effect,D351H

# Variants of: B2
# Settings: with rbtn1_human LMO1, P25800
# Remark: another data set of the same source
row,effect of a mutation on the interaction,Variant
1,with no effect,G386D

# Variants of: B3
# Settings: with stk4_human STK4, Q13043
row,effect of a mutation on the interaction,Variant
1,with no effect,R361H

# Variants of: B3
# Settings: with stk4_human STK4, Q13043
# Remark: another data set of the same source
row,effect of a mutation on the interaction,Variant
1,with no effect,R361C

# Variants of: B3
# Settings: with stk4_human STK4, Q13043
# Remark: another data set of the same source
row,effect of a mutation on the interaction,Variant
1,with no effect,D351H

# Variants of: B3
# Settings: with stk4_human STK4, Q13043
# Remark: another data set of the same source
row,effect of a mutation on the interaction,Variant
1,with no effect,G386D

# Variants of: B4
# Settings: with nkx22_human NKX2-2, O95096
row,effect of a mutation on the interaction,Variant
1,with no effect,R361C

# Variants of: B4
# Settings: with nkx22_human NKX2-2, O95096
# Remark: another data set of the same source
row,effect of a mutation on the interaction,Variant
1,with no effect,R361H

# Variants of: B4
# Settings: with nkx22_human NKX2-2, O95096
# Remark: another data set of the same source
row,effect of a mutation on the interaction,Variant
1,with no effect,D351H

# Variants of: B5
# Settings: with klhl6_human KLHL6, Q8WZ60
row,effect of a mutation on the interaction,Variant
1,with no effect,D351H

# Variants of: B5
# Settings: with klhl6_human KLHL6, Q8WZ60
# Remark: another data set of the same source
row,effect of a mutation on the interaction,Variant
1,with no effect,G386D

# Variants of: B5
# Settings: with klhl6_human KLHL6, Q8WZ60
# Remark: another data set of the same source
row,effect of a mutation on the interaction,Variant
1,causing an interaction,G386D

# Variants of: B5
# Settings: with klhl6_human KLHL6, Q8WZ60
# Remark: another data set of the same source
row,effect of a mutation on the interaction,Variant
1,with no effect,R361H

# Variants of: B5
# Settings: with klhl6_human KLHL6, Q8WZ60
# Remark: another data set of the same source
row,effect of a mutation on the interaction,Variant
1,with no effect,R361C

# Variants of: B6
# Settings: with inp4b_human INPP4B
row,effect of a mutation on the interaction,Variant
1,with no effect,D351H

# Variants of: B6
# Settings: with inp4b_human INPP4B
# Remark: another data set of the same source
row,effect of a mutation on the interaction,Variant
1,with no effect,R361C

# Variants of: B6
# Settings: with inp4b_human INPP4B
# Remark: another data set of the same source
row,effect of a mutation on the interaction,Variant
1,with no effect,R361H

# Variants of: B6
# Settings: with inp4b_human INPP4B
# Remark: another data set of the same source
row,effect of a mutation on the interaction,Variant
1,with no effect,G386D

# Variants of: B7
# Settings: with lats1_human LATS1, O95835
row,effect of a mutation on the interaction,Variant
1,with no effect,D351H

# Variants of: B7
# Settings: with lats1_human LATS1, O95835
# Remark: another data set of the same source
row,effect of a mutation on the interaction,Variant
1,with no effect,G386D

# Variants of: B7
# Settings: with lats1_human LATS1, O95835
# Remark: another data set of the same source
row,effect of a mutation on the interaction,Variant
1,increasing interaction strength,G386D
